For the test, the target named is T1, HTP-3 (G490K, G728K), Strep-tagged (C. elegans), O01820.
T1 chain: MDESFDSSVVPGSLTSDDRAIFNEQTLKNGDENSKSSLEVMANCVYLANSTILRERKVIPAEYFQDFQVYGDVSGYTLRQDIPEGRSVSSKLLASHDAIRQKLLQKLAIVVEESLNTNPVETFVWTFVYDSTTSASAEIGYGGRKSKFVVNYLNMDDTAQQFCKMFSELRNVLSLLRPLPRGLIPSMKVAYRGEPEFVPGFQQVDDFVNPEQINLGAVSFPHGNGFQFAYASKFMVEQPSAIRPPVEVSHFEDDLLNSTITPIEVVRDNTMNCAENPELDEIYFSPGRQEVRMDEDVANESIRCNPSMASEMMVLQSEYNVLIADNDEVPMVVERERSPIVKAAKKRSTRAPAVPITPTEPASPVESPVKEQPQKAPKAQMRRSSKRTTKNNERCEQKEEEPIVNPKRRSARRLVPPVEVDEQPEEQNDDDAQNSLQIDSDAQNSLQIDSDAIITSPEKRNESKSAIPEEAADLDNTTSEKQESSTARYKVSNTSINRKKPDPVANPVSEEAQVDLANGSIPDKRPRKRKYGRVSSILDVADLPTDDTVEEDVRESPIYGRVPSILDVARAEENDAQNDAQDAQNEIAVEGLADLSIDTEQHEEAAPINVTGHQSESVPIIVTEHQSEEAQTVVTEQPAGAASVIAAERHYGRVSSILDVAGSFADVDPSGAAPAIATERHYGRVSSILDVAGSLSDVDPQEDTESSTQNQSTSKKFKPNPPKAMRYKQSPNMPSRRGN
Briefly: pull-down. The note with it: remark: other sources report otherwise.

B1: HTP-1, untagged, Q20305 1-352 (natural protein)
chain: MAPLETIYDESLNKSADSIDDKKWSKLFPRIVSDPDRSSNFMTRAIYVAFSAVLRNRNILGQEYFTKNYITEKLKCMTLCFRNPRSNQIAQLLRNAGDATKDGFLKEVSLVITNNEGDLEAIEVFSMKFIYFENGGVVARLSTDKNGQEDPHFAKLAQLVYEGGDSVRDQMVTIVRSVQFLCTKVLEPLPEEFTANFRLEYTNDAPSNFRIDGFEDSSTFYTLPDDIQSATIGHLRPGCHAANMECWSMLMSDSYEAELTLKRHLDKVSDRHGFNPVNVLYKSFNSEDSDTSLSQATTESVNDQGGNETSPVDDITESLEKAQMSPIQTRPTTRRGADGSKTRSSPYSRSCK
Regarding B1, the HTP-1 bound, percent of the amount bound to the wild-type complex stood at 10%.

Source of the values: publication PMC4624198.
